Test results reported in the MegaScale stability set (Tsuboyama et al. 2023).

B1: HEEH_KT_rd6_3546 (parent)
chain: SEEDKEREHWERLNRDFELRVLDTTFIAHHAEEVIKLLRWLEK

Variants of: B1
Test: folding stability dG (cDNA display proteolysis); higher = more stable
Details: PBS, room temperature

Compared with SQEDKEREHWERLNRDFELRVLDTTFIAHHAEEVIKLLRWLEK [E2Q], SKEDKEREHWERLNRDFELRVLDTTFIAHHAEEVIKLLRWLEK [E2K] is lower in “folding stability dG” value: 1.62 kcal/mol for the first, 1.45 kcal/mol for the second.

First: SDEDKEREHWERLNRDFELRVLDTTFIAHHAEEVIKLLRWLEK [E2D]
Second: STEDKEREHWERLNRDFELRVLDTTFIAHHAEEVIKLLRWLEK [E2T]
The “folding stability dG” value of the first is lower: 1.44 kcal/mol for the first, 1.48 kcal/mol for the second.

Going from SEKDKEREHWERLNRDFELRVLDTTFIAHHAEEVIKLLRWLEK [E3K] to SEHDKEREHWERLNRDFELRVLDTTFIAHHAEEVIKLLRWLEK [E3H], the “folding stability dG” value falls from 1.4 kcal/mol to 1.36 kcal/mol.

Going from SEIDKEREHWERLNRDFELRVLDTTFIAHHAEEVIKLLRWLEK [E3I] to SELDKEREHWERLNRDFELRVLDTTFIAHHAEEVIKLLRWLEK [E3L], the “folding stability dG” value rises from 1.56 kcal/mol to 1.61 kcal/mol.

Compared with SEWDKEREHWERLNRDFELRVLDTTFIAHHAEEVIKLLRWLEK [E3W], SEQDKEREHWERLNRDFELRVLDTTFIAHHAEEVIKLLRWLEK [E3Q] is lower in “folding stability dG” value: 1.65 kcal/mol for the first, 1.41 kcal/mol for the second.

Compared with SEYDKEREHWERLNRDFELRVLDTTFIAHHAEEVIKLLRWLEK [E3Y], SESDKEREHWERLNRDFELRVLDTTFIAHHAEEVIKLLRWLEK [E3S] is higher in “folding stability dG” value: 1.39 kcal/mol for the first, 1.45 kcal/mol for the second.

Compared with SENDKEREHWERLNRDFELRVLDTTFIAHHAEEVIKLLRWLEK [E3N], SEDDKEREHWERLNRDFELRVLDTTFIAHHAEEVIKLLRWLEK [E3D] is lower in “folding stability dG” value: 1.51 kcal/mol for the first, 1.49 kcal/mol for the second.

Compared with SERDKEREHWERLNRDFELRVLDTTFIAHHAEEVIKLLRWLEK [E3R], SEADKEREHWERLNRDFELRVLDTTFIAHHAEEVIKLLRWLEK [E3A] is lower in “folding stability dG” value: 1.48 kcal/mol for the first, 1.22 kcal/mol for the second.

Compared with SEPDKEREHWERLNRDFELRVLDTTFIAHHAEEVIKLLRWLEK [E3P], SEVDKEREHWERLNRDFELRVLDTTFIAHHAEEVIKLLRWLEK [E3V] is lower in “folding stability dG” value: 1.3 kcal/mol for the first, 1.29 kcal/mol for the second.

Going from SEGDKEREHWERLNRDFELRVLDTTFIAHHAEEVIKLLRWLEK [E3G] to SEFDKEREHWERLNRDFELRVLDTTFIAHHAEEVIKLLRWLEK [E3F], the “folding stability dG” value rises from 1.28 kcal/mol to 1.63 kcal/mol.

Going from SETDKEREHWERLNRDFELRVLDTTFIAHHAEEVIKLLRWLEK [E3T] to SEMDKEREHWERLNRDFELRVLDTTFIAHHAEEVIKLLRWLEK [E3M], the “folding stability dG” value rises from 1.19 kcal/mol to 1.33 kcal/mol.

First: SEEDVEREHWERLNRDFELRVLDTTFIAHHAEEVIKLLRWLEK [K5V]
Second: SEEDQEREHWERLNRDFELRVLDTTFIAHHAEEVIKLLRWLEK [K5Q]
The “folding stability dG” value of the first is higher: 1.46 kcal/mol for the first, 1.11 kcal/mol for the second.

First: SEEDPEREHWERLNRDFELRVLDTTFIAHHAEEVIKLLRWLEK [K5P]
Second: SEEDTEREHWERLNRDFELRVLDTTFIAHHAEEVIKLLRWLEK [K5T]
The “folding stability dG” value of the first is higher: 1.28 kcal/mol for the first, 1.21 kcal/mol for the second.

Compared with SEEDSEREHWERLNRDFELRVLDTTFIAHHAEEVIKLLRWLEK [K5S], SEEDMEREHWERLNRDFELRVLDTTFIAHHAEEVIKLLRWLEK [K5M] is higher in “folding stability dG” value: 1.08 kcal/mol for the first, 1.21 kcal/mol for the second.

First: SEEDYEREHWERLNRDFELRVLDTTFIAHHAEEVIKLLRWLEK [K5Y]
Second: SEEDWEREHWERLNRDFELRVLDTTFIAHHAEEVIKLLRWLEK [K5W]
The “folding stability dG” value of the first is lower: 1.35 kcal/mol for the first, 1.67 kcal/mol for the second.

Going from SEEDLEREHWERLNRDFELRVLDTTFIAHHAEEVIKLLRWLEK [K5L] to SEEDNEREHWERLNRDFELRVLDTTFIAHHAEEVIKLLRWLEK [K5N], the “folding stability dG” value rises from 1.15 kcal/mol to 1.29 kcal/mol.

First: SEEDGEREHWERLNRDFELRVLDTTFIAHHAEEVIKLLRWLEK [K5G]
Second: SEEDREREHWERLNRDFELRVLDTTFIAHHAEEVIKLLRWLEK [K5R]
The “folding stability dG” value of the first is higher: 1.27 kcal/mol for the first, 1.23 kcal/mol for the second.

Compared with SEEDFEREHWERLNRDFELRVLDTTFIAHHAEEVIKLLRWLEK [K5F], SEEDAEREHWERLNRDFELRVLDTTFIAHHAEEVIKLLRWLEK [K5A] is lower in “folding stability dG” value: 1.44 kcal/mol for the first, 1.39 kcal/mol for the second.

First: SEEDHEREHWERLNRDFELRVLDTTFIAHHAEEVIKLLRWLEK [K5H]
Second: SEEDEEREHWERLNRDFELRVLDTTFIAHHAEEVIKLLRWLEK [K5E]
The “folding stability dG” value of the first is higher: 1.4 kcal/mol for the first, 1.39 kcal/mol for the second.

Going from SEEDIEREHWERLNRDFELRVLDTTFIAHHAEEVIKLLRWLEK [K5I] to SEEDDEREHWERLNRDFELRVLDTTFIAHHAEEVIKLLRWLEK [K5D], the “folding stability dG” value rises from 1.17 kcal/mol to 1.41 kcal/mol.

Going from REEDKEREHWERLNRDFELRVLDTTFIAHHAEEVIKLLRWLEK [S1R] to IEEDKEREHWERLNRDFELRVLDTTFIAHHAEEVIKLLRWLEK [S1I], the “folding stability dG” value falls from 1.36 kcal/mol to 1.22 kcal/mol.

Going from QEEDKEREHWERLNRDFELRVLDTTFIAHHAEEVIKLLRWLEK [S1Q] to PEEDKEREHWERLNRDFELRVLDTTFIAHHAEEVIKLLRWLEK [S1P], the “folding stability dG” value falls from 1.5 kcal/mol to 1.43 kcal/mol.

Compared with YEEDKEREHWERLNRDFELRVLDTTFIAHHAEEVIKLLRWLEK [S1Y], GEEDKEREHWERLNRDFELRVLDTTFIAHHAEEVIKLLRWLEK [S1G] is higher in “folding stability dG” value: 1.27 kcal/mol for the first, 1.51 kcal/mol for the second.

Compared with FEEDKEREHWERLNRDFELRVLDTTFIAHHAEEVIKLLRWLEK [S1F], HEEDKEREHWERLNRDFELRVLDTTFIAHHAEEVIKLLRWLEK [S1H] is higher in “folding stability dG” value: 1.13 kcal/mol for the first, 1.35 kcal/mol for the second.

Going from VEEDKEREHWERLNRDFELRVLDTTFIAHHAEEVIKLLRWLEK [S1V] to TEEDKEREHWERLNRDFELRVLDTTFIAHHAEEVIKLLRWLEK [S1T], the “folding stability dG” value rises from 1.31 kcal/mol to 1.4 kcal/mol.

Going from DEEDKEREHWERLNRDFELRVLDTTFIAHHAEEVIKLLRWLEK [S1D] to CEEDKEREHWERLNRDFELRVLDTTFIAHHAEEVIKLLRWLEK [S1C], the “folding stability dG” value rises from 1.36 kcal/mol to 2.12 kcal/mol.

Compared with AEEDKEREHWERLNRDFELRVLDTTFIAHHAEEVIKLLRWLEK [S1A], EEEDKEREHWERLNRDFELRVLDTTFIAHHAEEVIKLLRWLEK [S1E] is lower in “folding stability dG” value: 1.28 kcal/mol for the first, 1.19 kcal/mol for the second.

Compared with NEEDKEREHWERLNRDFELRVLDTTFIAHHAEEVIKLLRWLEK [S1N], WEEDKEREHWERLNRDFELRVLDTTFIAHHAEEVIKLLRWLEK [S1W] is lower in “folding stability dG” value: 1.3 kcal/mol for the first, 1.16 kcal/mol for the second.

Going from LEEDKEREHWERLNRDFELRVLDTTFIAHHAEEVIKLLRWLEK [S1L] to KEEDKEREHWERLNRDFELRVLDTTFIAHHAEEVIKLLRWLEK [S1K], the “folding stability dG” value falls from 1.35 kcal/mol to 1.18 kcal/mol.

In the case of MEEDKEREHWERLNRDFELRVLDTTFIAHHAEEVIKLLRWLEK [S1M], the “folding stability dG” value is reported as 0.916 kcal/mol.
